Laboratory results reported in patent US20090099029.

T1: Bovine, dephosphorylated, Myelin Basic Protein (MBP), P02687
T1 chain: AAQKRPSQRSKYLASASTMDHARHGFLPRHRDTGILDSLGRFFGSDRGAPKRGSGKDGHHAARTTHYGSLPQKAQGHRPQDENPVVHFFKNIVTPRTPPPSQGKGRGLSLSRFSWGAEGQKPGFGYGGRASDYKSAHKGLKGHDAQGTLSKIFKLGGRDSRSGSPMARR

B1: ROCK2 (protein)
chain: MSRPPPTGKMPGAPETAPGDGAGASRQRKLEALIRDPRSPINVESLLDGLNSLVLDLDFPALRKNKNIDNFLNRYEKIVKKIRGLQMKAEDYDVVKVIGRGAFGEVQLVRHKASQKVYAMKLLSKFEMIKRSDSAFFWEERDIMAFANSPWVVQLFYAFQDDRYLYMVMEYMPGGDLVNLMSNYDVPEKWAKFYTAEVVLALDAIHSMGLIHRDVKPDNMLLDKHGHLKLADFGTCMKMDETGMVHCDTAVGTPDYISPEVLKSQGGDGFYGRECDWWSVGVFLYEMLVGDTPFYADSLVGTYSKIMDHKNSLCFPEDAEISKHAKNLICAFLTDREVRLGRNGVEEIRQHPFFKNDQWHWDNIRETAAPVVPELSSDIDSSNFDDIEDDKGDVETFPIPKAFVGNQLPFIGFTYYRENLLLSDSPSCRETDSIQSRKNEESQEIQKKLYTLEEHLSNEMQAKEELEQKCKSVNTRLEKTAKELEEEITLRKSVESALRQLEREKALLQHKNAEYQRKADHEADKKRNLENDVNSLKDQLEDLKKRNQNSQI
B2: PRKD1(PKD) (protein)
chain: MSAPPVLRPPSPLLPVAAAAAAAAAALVPGSGPGPAPFLAPVAAPVGGISFHLQIGLSREPVLLLQDSSGDYSLAHVREMACSIVDQKFPECGFYGMYDKILLFRHDPTSENILQLVKAASDIQEGDLIEVVLSASATFEDFQIRPHALFVHSYRAPAFCDHCGEMLWGLVRQGLKCEGCGLNYHKRCAFKIPNNCSGVRRRRLSNVSLTGVSTIRTSSAELSTSAPDEPLLQKSPSESFIGREKRSNSQSYIGRPIHLDKILMSKVKVPHTFVIHSYTRPTVCQYCKKLLKGLFRQGLQCKDCRFNCHKRCAPKVPNNCLGEVTINGDLLSPGAESDVVMEEGSDDNDSERNSGLMDDMEEAMVQDAEMAMAECQNDSGEMQDPDPDHEDANRTISPSTSNNIPLMRVVQSVKHTKRKSSTVMKEGWMVHYTSKDTLRKRHYWRLDSKCITLFQNDTGSRYYKEIPLSEILSLEPVKTSALIPNGANPHCFEITTANVVYYVGENVVNPSSPSPNNSVLTSGVGADVARMWEIAIQHALMPVIPKGSSVGTGTNLHRDISVSISVSNCQIQENVDISTVYQIFPDEVLGSGQFGIVYGGKHRKTGRDVAIKIIDKLRFPTKQESQLRNEVAILQNLHHPGVVNLECMFETPERVFVVMEKLHGDMLEMILSSEKGRLPEHITKFLITQILVALRHLHFKNIVHCDLKPENVLLASADPFPQVKLCDFGFARIIGEKSFRRSVVGTPAYLAPEVLRNKGYNRSLDMWSVGVIIYVSLSGTFPFNEDEDIHDQIQNAAFMYPPNPWKEISHEAIDLINNLLQVKMRKRYSVDKTLSHPWLQDYQTWLDLRELECKIGERYITHESDDLRWEKYAGEQGLQYPTHLINPSASHSDTPETEETEMKALGERVSIL
B3: PRKCZ (protein)
chain: MPSRTGPKMEGSGGRVRLKAHYGGDIFITSVDAATTFEELCEEVRDMCRLHQQHPLTLKWVDSEGDPCTVSSQMELEEAFRLARQCRDEGLIIHVFPSTPEQPGLPCPGEDKSIYRRGARRWRKLYRANGHLFQAKRFNRRAYCGQCSERIWGLARQGYRCINCKLLVHKRCHGLVPLTCRKHMDSVMPSQEPPVDDKNEDADLPSEETDGIAYISSSRKHDSIKDDSEDLKPVIDGMDGIKISQGLGLQDFDLIRVIGRGSYAKVLLVRLKKNDQIYAMKVVKKELVHDDEDIDWVQTEKHVFEQASSNPFLVGLHSCFQTTSRLFLVIEYVNGGDLMFHMQRQRKLPEEHARFYAAEICIALNFLHERGIIYRDLKLDNVLLDADGHIKLTDYGMCKEGLGPGDTTSTFCGTPNYIAPEILRGEEYGFSVDWWALGVLMFEMMAGRSPFDIITDNPDMNTEDYLFQVILEKPIRIPRFLSVKASHVLKGFLNKDPKERLGCRPQTGFSDIKSHAFFRSIDWDLLEKKQALPPFQPQITDDYGLDNFDTQFTSEPVQLTPDDEDAIKRIDQSEFEGFEYINPLLLSTEESV
B4: EPHB3 (protein)
chain: CLRKQRHGSDSEYTEKLQQYIAPGMKVYIDPFTYEDPNEAVREFAKEIDVSCVKIEEVIGAGEFGEVCRGRLKQPGRREVFVAIKTLKVGYTERQRRDFLSEASIMGQFDHPNIIRLEGVVTKSRPVMILTEFMENCALDSFLRLNDGQFTVIQLVGMLRGIAAGMKYLSEMNYVHRDLAARNILVNSNLVCKVSDFGLSRFLEDDPSDPTYTSSLGGKIPIRWTAPEAIAYRKFTSASDVWSYGIVMWEVMSYGERPYWDMSNQDVINAVEQDYRLPPPMDCPTALHQLMLDCWVRDRNLRPKFSQIVNTLDKLIRNAASLKVIASAQSGMSQPLLDRTVPDYTTFTTVGDWLDAIKMGRYKESFVSAGFASFDLVAQMTAEDLLRIGVTLAGHQKKILSSIQDMRLQMNQTLPVQV
B5: PRKX (protein)
chain: MEAPGLAQAAAAESDSRKVAEETPDGAPALCPSPEALSPEPPVYSLQDFDTLATVGTGTFGRVHLVKEKTAKHFFALKVMSIPDVIRLKQEQHVHNEKSVLKEVSHPFLIRLFWTWHDERFLYMLMEYVPGGELFSYLRNRGRFSSTTGLFYSAEIICAIEYLHSKEIVYRDLKPENILLDRDGHIKLTDFGFAKKLVDRTWTLCGTPEYLAPEVIQSKGHGRAVDWWALGILIFEMLSGFPPFFDDNPFGIYQKILAGKIDFPRHLDFHVKDLIKKLLVVDRTRRLGNMKNGANDVKHHRWFRSVDWEAVPQRKLKPPIVPKIAGDGDTSNFETYPENDWDTAAPVPQKDLEIFKNF
B6: PRKD2(PKD2) (protein)
chain: MATAPSYPAGLPGSPGPGSPPPPGGLELQSPPPLLPQIPAPGSGVSFHIQIGLTREFVLLPAASELAHVKQLACSIVDQKFPECGFYGLYDKILLFKHDPTSANLLQLVRSSGDIQEGDLVEVVLSASATFEDFQIRPHALTVHSYRAPAFCDHCGEMLFGLVRQGLKCDGCGLNYHKRCAFSIPNNCSGARKRRLSSTSLASGHSVRLGTSESLPCTAEELSRSTTELLPRRPPSSSSSSSASSYTGRPIELDKMLLSKVKVPHTFLIHSYTRPTVCQACKKLLKGLFRQGLQCKDCKFNCHKRCATRVPNDCLGEALINGDVPMEEATDFSEADKSALMDESEDSGVIPGSHSENALHASEEEEGEGGKAQSSLGYIPLMRVVQSVRHTTRKSSTTLREGWVVHYSNKDTLRKRHYWRLDCKCITLFQNNTTNRYYKEIPLSEILTVESAQNFSLVPPGTNPHCFEIVTANATYFVGEMPGGTPGGPSGQGAEAARGWETAIRQALMPVILQDAPSAPGHAPHRQASLSISVSNSQIQENVDIATVYQIFPDEVLGSGQFGVVYGGKHRKTGRDVAVKVIDKLRFPTKQESQLRNEVAILQSLRHPGIVNLECMFETPEKVFVVMEKLHGDMLEMILSSEKGRLPERLTKFLITQILVALRHLHFKNIVHCDLKPENVLLASADPFPQVKLCDFGFARIIGEKSFRRSVVGTPAYLAPEVLLNQGYNRSLDMWSVGVIMYVSLSGTFPFNEDEDINDQIQNAAFMYPASPWSHISAGAIDLINNLLQVKMRKRYSVDKSLSHPWLQEYQTWLDLRELEGKMGERYITHESDDARWEQFAAEHPLPGSGLPTDRDLGGACPPQDHDMQGLAERISVL
B7: ROCK1 (protein)
chain: MSTGDSFETRFEKMDNLLRDPKSEVNSDCLLDGLDALVYDLDFPALRKNKNIDNFLSRYKDTINKIRDLRMKAEDYEVVKVIGRGAFGEVQLVRHKSTRKVYAMKLLSKFEMIKRSDSAFFWEERDIMAFANSPWVVQLFYAFQDDRYLYMVMEYMPGGDLVNLMSNYDVPEKWARFYTAEVVLALDAIHSMGFIHRDVKPDNMLLDKSGHLKLADFGTCMKMNKEGMVRCDTAVGTPDYISPEVLKSQGGDGYYGRECDWWSVGVFLYEMLVGDTPFYADSLVGTYSKIMNHKNSLTFPDDNDISKEAKNLICAFLTDREVRLGRNGVEEIKRHLFFKNDQWAWETLRDTVAPVVPDLSSDIDTSNFDDLEEDKGEEETFPIPKAFVGNQLPFVGFTYYSNRRYLSSANPNDNRTSSNADKSLQESLQKTIYKLEEQLHNEMQLKDEMEQKCRTSNIKLDKIMKELDEEGNQRRNLESTVSQIEKEKMLLQHRINEYQRKAEQENEKRRNVENEVSTLKDQLEDLKKVSQNSQL
B8: PRKCN(PKD3) (protein)
chain: MSANNSPPSAQKSVLPTAIPAVLPAASPCSSPKTGLSARLSNGSFSAPSLTNSRGSVHTVSFLLQIGLTRESVTIEAQELSLSAVKDLVCSIVYQKFPECGFFGMYDKILLFRHDMNSENILQLITSADEIHEGDLVEVVLSALATVEDFQIRPHTLYVHSYKAPTFCDYCGEMLWGLVRQGLKCEGCGLNYHKRCAFKIPNNCSGVRKRRLSNVSLPGPGLSVPRPLQPEYVALPSEESHVHQEPSKRIPSWSGRPIWMEKMVMCRVKVPHTFAVHSYTRPTICQYCKRLLKGLFRQGMQCKDCKFNCHKRCASKVPRDCLGEVTFNGEPSSLGTDTDIPMDIDNNDINSDSSRGLDDTEEPSPPEDKMFFLDPSDLDVERDEEAVKTISPSTSNNIPLMRVVQSIKHTKRKSSTMVKEGWMVHYTSRDNLRKRHYWRLDSKCLTLFQNESGSKYYKEIPLSEILRISSPRDFTNISQGSNPHCFEIITDTMVYFVGENNGDSSHNPVLAATGVGLDVAQSWEKAIRQALMPVTPQASVCTSPGQGKDHKDLSTSISVSNCQIQENVDISTVYQIFADEVLGSGQFGIVYGGKHRKTGRDVAIKVIDKMRFPTKQESQLRNEVAILQNLHHPGIVNLECMFETPERVFVVMEKLHGDMLEMILSSEKSRLPERITKFMVTQILVALRNLHFKNIVHCDLKPENVLLASAEPFPQVKLCDFGFARIIGEKSFRRSVVGTPAYLAPEVLRSKGYNRSLDMWSVGVIIYVSLSGTFPFNEDEDINDQIQNAAFMYPPNPWREISGEAIDLINNLLQVKMRKRYSVDKSLSHPWLQDYQTWLDLREFETRIGERYITHESDDARWEIHAYTHNLVYPKHFIMAPNPDDMEEDP
B9: PRKCQ (protein)
chain: MSPFLRIGLSNFDCGSCQSCQGEAVNPYCAVLVKEYVESENGQMYIQKKPTMYPPWDSTFDAHINKGRVMQIIVKGKNVDLISETTVELYSLAERCRKNNGKTEIWLELKPQGRMLMNARYFLEMSDTKDMNEFETEGFFALHQRRGAIKQAKVHHVKCHEFTATFFPQPTFCSVCHEFVWGLNKQGYQCRQCNAAIHKKCIDKVIAKCTGSAINSRETMFHKERFKIDMPHRFKVYNYKSPTFCEHCGTLLWGLARQGLKCDACGMNVHHRCQTKVANLCGINQKLMAEALAMIESTQQARCLRDTEQIFREGPVEIGLPCSIKNEARPPCLPTPGKREPQGISWESPLDEVDKMCHLPEPELNKERPSLQIKLKIEDFILHKMLGKGSFGKVFLAEFKKTNQFFAIKALKKDVVLMDDDVECTMVEKRVLSLAWEHPFLTHMFCTFQTKENLFFVMEYLNGGDLMYHIQSCHKFDLSRATFYAAEIILGLQFLHSKGIVYRDLKLDNILLDKDGHIKIADFGMCKENMLGDAKTNTFCGTPDYIAPEILLGQKYNHSVDWWSFGVLLYEMLIGQSPFHGQDEEELFHSIRMDNPFYPRWLEKEAKDLLVKLFVREPEKRLGVRGDIRQHPLFREINWEELERKEIDPPFRPKVKSPFDCSNFDKEFLNEKPRLSFADRALINSMDQNMFRNFSFMNPGMERLIS

Biological target: T1, Bovine, dephosphorylated, Myelin Basic …
B1 was tested, and the “MBP Kinase Activity” value was “Strong”.
B2 was tested, and the “MBP Kinase Activity” value was “Weak”.
In the case of B3, the “MBP Kinase Activity” value is reported as “Strong”.
For B4, the “MBP Kinase Activity” value was “Strong”.
B5 was tested, and the “MBP Kinase Activity” value was “Negative”.
B6 was tested, and the “MBP Kinase Activity” value was “Strong”.
In the case of B7, the “MBP Kinase Activity” value is reported as “Strong”.
In the case of B8, the “MBP Kinase Activity” value is reported as “Weak”.
In the case of B9, the “MBP Kinase Activity” value is reported as “Strong”.
